Measurements taken from the DeepSol protein solubility set.

experiment: soluble on expression in E. coli; label from the status in PepcDB or PDB records

| Sequence | soluble on expression in E. coli |
| --- | --- |
| MGSDKIHHHHHHMTARQDLVDLIAAIDAGSGPARNPYWRDLAVDDSVARKAAVLMLFGALDNVPAASGKPLAPADLDVLLLERAHTLDDHPGQVAFPGGGIDPGETPIEAALREAEEETGLDSAGVEVLGAMPQLALPRGNFLVTPVLAWWHSPSPVRVVDYGESAQVFRVPVRDLLDPDNRVMATVSRAGQSFLSPAFVVNKVVVWGFTGMILNELFDHLGWSVPWDRSRLHQIDV | not soluble |
| MGSDKIHHHHHHMTAVNIWKPEDNIPREILAILSKPHPNYQLAFLNIIQLLKTQRRTGWVDHGIDPCESISDHMYRMGLTTMLITDKNVDRNKCIRIALVHDFAESLVGDITPNDPMTKEEKHRREFETVKYLCESIIRPCSESASREILDDWLAYEKQTCLEGRYVKDIDKYEMLVQCFEYEQKYNGKKDLKQFLGAINDIKTDEVKKWTQSLLEDRQAFFDSLKE | not soluble |
| MGSDKIHHHHHHMTDSRQRLLVFAPTRRVASETFVRANLAGLPFEVSAYFGDEFPLDQPGRFAYGLGVLLSKIFTRLGWLRLAELPAAFVAWILIRRHRPDVVLAEFGFHAVRVMQAAARVDVPFVVHFRGSDLSANRRLGVLRSRYRRLVSIASGVVCKSRPMATTLEQLGASPSTILISPSGANPALFSVGDPALAAPVFLAVGRFVAKKGPLQTIRAFAGQPQGELWMVGEGPLLAEARRLVQALQVQDRVRFLGVKTQSEVAALMRQARVFVQHSQIAPDGDSEGNPVSVMEAQLCGLPVVATLHAGIPDVVLDGSTGLLVEENDVDGMAEAMTRLMADPNLAAQFGLAGRERVLAAFTLEHHLQDLTRFLQQQIRSTTHF | not soluble |
| MGSDKIHHHHHHMTEKLVAEKISNRHPAAAPLATGQVPWAIKGELILNCNCTVFCPCVVSLGKHAPTEGYCQAWSGVRIDEGHYGDEDLSGLNVGLMLEIPGLMARGNWKAAAYIDERSSSAAYEGLVNIFSGKARGTTGLFAVLVSEFLGAERAPVIFETEGNARRLMVGKKIQGEIVPVPGKGGADQVVTNTEYWMGPDITVATATKGRVRAFGRVWDFDGRSAEICQIDWSGPR | not soluble |
| MGSDKIHHHHHHMTENSRKTATELFEFLDGLGISHTTKQHEPVFTVAESQSLRDLIPGGHTKNLFVKDKKDQYFVLTVEENAVVDLKSVHKTIGAASRVSFGRPEKMLEYLGVVPGSVTVFGAINDTARQVTFVLDSDLLENELVNGHPLSNDQTTTIASKDLIRFLEATGHAPLVLKVSE | soluble |
| MGSDKIHHHHHHMTEQATTTDELAFTRPYGEQEKQILTAEAVEFLTELVTHFTPQRNKLLAARIQQQQDIDNGTLPDFISETASIRDADWKIRGIPADLEDRRVEITGPVERKMVINALNANVKVFMADFEDSLAPDWNKVIDGQINLRDAVNGTISYTNEAGKIYQLKPNPAVLICRVRGLHLPEKHVTWRGEAIPGSLFDFALYFFHNYQALLAKGSGPYFYLPKTQSWQEAAWWSEVFSYAEDRFNLPRGTIKATLLIETLPAVFQMDEILHALRDHIVGLNCGRWDYIFSYIKTLKNYPDRVLPDRQAVTMDKPFLNAYSRLLIKTCHKRGAFAMGGMAAFIPSKDEEHNNQVLNKVKADKSLEANNGHDGTWIAHPGLADTAMAVFNDILGSRKNQLEVMREQDAPITADQLLAPCDGERTEEGMRANIRVAVQYIEAWISGNGCVPIYGLMEDAATAEISRTSIWQWIHHQKTLSNGKPVTKALFRQMLGEEMKVIASELGEERFSQGRFDDAARLMEQITTSDELIDFLTLPGYRLLA | not soluble |
| MGSDKIHHHHHHMTFAQIQTFLAVARLGNFHAAARQLNVTQAAVSARVRQLEEELDLRLFERGRRGAELTEAGRFLLPGAEAIASTWTTISKDARHFYAGRVPLRLGGQLSIWDQQLVDLVIWVEETLGALPLALNFDHEMNVQDAIRNGVLDFALTHEQPAPDLTGVALPAERLVLVGSEPFDLGQSDLPLFMNFQLGGQYDAFVARHLSGHAGQHIMMGNCAMGLRYLRKRGGIAFFPVSMVVEDIQHGHLFPVQGVPEMELACNAVYHPSSVLGDLTAQIATAARSLRSREPVVALDTMS | not soluble |
| MGSDKIHHHHHHMTFGEKLLNAASTRGRLCVGIDPHESLLTSWGLPVNVDGLAEFSRACVEAFADTVALVKPQVAFYERFGSAGFAILEETIQTLRERGCLVVSDAKRGDIGSTMAGYASAWLDPASPLSSDAVTVSPYLGFHSLDPVFELAEQHGRGVFVLAATSNPEARELQDQQNADGVSISQQIVDQAAALNAPYMAQGKAGNIGVVIGATLSKPPRLSTLGGAILMPGVGAQGGTASDVDEIAGDMAHLAFPNVSRSILATGPDIAEMKNSVAKNAADFPGFPRS | not soluble |
